Measured values as given in patent US20250353912A1, “COMPOSITIONS AND METHODS COMPRISING ANTIBODIES THAT BIND TO COVALENT PEPTIDE CONJUGATES” (New York University, priority 2022, published 2025).

Molecular target: osimertinib-EGFR/HLA-A*02 (Homo sapiens, UniProt P00533)
Assay: Yeast-display binding of affinity matured clones
Conditions: for binding to EGFR/HLA-A*02 (no drug-conjugation) / binding to osimertinib-EGFR/HLA-A*02: binding titration, FIG. 39; for inhibition of antigen binding by free drug: osimertinib-EGFR/HLA-A*02 10 nM, free osimertinib 1 μM, FIG. 40
Method: FIG. 40. Binding of EO_Q16 and EO_Q17 to osimertinib-EGFR/HLA-A*02 (10 nM) in the absence and presence of free osimertinib (1 μM), showing that antigen binding of these antibodies is not inhibited by the presence of free drug.
The binding partners described above in this Example show higher binding signals to osimertinib-EGFR/HLA-A*02, as tested in the yeast display format and as shown in FIGS. 39 and 40.

| binding to osimertinib-EGFR/HLA-A*02 | inhibition of antigen binding by free drug | Molecule | binding to EGFR/HLA-A*02 (no drug-conjugation) |
| --- | --- | --- | --- |
| high affinity | not inhibited | EO_Q16: affinity matured clone of OEA2-5, osimertinib-EGFR on HLA-A*02 (antibody, V domains shown) VH: EVQLVESGGGLVQPGGSLRLSCAASGFTISSSYIHWVRQAPGKGLEWVAYISPSYGSTSYADSVKGRFTISADTSKNTAYLQMNSLRAEDTAVYYCAREYVTMSIDYWGQGTLVTVSS VL: DIQMTQSPSSLSASVGDRVTITCRASQSVSSAVAWYQQKPGKAPKLLIYSASSLYSGVPSRFSGSRSGTDFTLTISSLQPEDFATYYCQQYSDWPITFGQGTKVEIKRTV | not to the equivalent antigen without drug conjugation |
| high affinity | not inhibited | EO_Q17: affinity matured clone of OEA2-5, osimertinib-EGFR on HLA-A*02 (antibody, V domains shown) VH: EVQLVESGGGLVQPGGSLRLSCAASGFTISSSYIHWVRQAPGKGLEWVAYISPSYGSTSYADSVKGRFTISADTSKNTAYLQMNSLRAEDTAVYYCARELVEMTPDYWGQGTLVTVSS VL: DIQMTQSPSSLSASVGDRVTITCRASQSVSSAVAWYQQKPGKAPKLLIYSASSLYSGVPSRFSGSRSGTDFTLTISSLQPEDFATYYCQQYSSWPITFGQGTKVEIKRTV | not to the equivalent antigen without drug conjugation |
